The values below come from US20180057596A1 (AstraZeneca / MedImmune, published 2018).

The target of assay [1] is T1, cynomolgus IL4Rα/Fc HIS6 (HEK expressed) (cynomolgus monkey).
T1 construct: also called Cyno IL4R; cynomolgus IL-4Rα HIS Fc (in house HEK-EBNA derived); not shown: HIS6 tag
Nature of the assay: HTRF receptor-ligand assay, purified scFv against biotinylated cynomolgus IL4.

The target in assay [2] is T2, human IL4Rα/Fc (R and D Systems 604-4R) (human, UniProt P24394 26-231, limits assumed, biotin labelled in the assay of Example 5).
T2 construct: bought protein; also called IL-4Rα/Fc (R&D systems Cat. No. 604-4R-050); not shown: Fc part of the bought fusion
T2 sequence (looked up): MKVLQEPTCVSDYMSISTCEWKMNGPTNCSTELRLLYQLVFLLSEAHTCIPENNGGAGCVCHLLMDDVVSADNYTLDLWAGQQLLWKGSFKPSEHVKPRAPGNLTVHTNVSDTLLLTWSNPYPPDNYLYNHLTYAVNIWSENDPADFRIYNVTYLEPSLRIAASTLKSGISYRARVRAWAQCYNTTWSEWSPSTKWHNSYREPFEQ
Nature of the assay: HTRF receptor-ligand assay, purified scFv against biotinylated human IL4. (In TR-FRET formats the signal depends on donor and acceptor labels being close together.)

T1 sequence (chain, as listed by the source): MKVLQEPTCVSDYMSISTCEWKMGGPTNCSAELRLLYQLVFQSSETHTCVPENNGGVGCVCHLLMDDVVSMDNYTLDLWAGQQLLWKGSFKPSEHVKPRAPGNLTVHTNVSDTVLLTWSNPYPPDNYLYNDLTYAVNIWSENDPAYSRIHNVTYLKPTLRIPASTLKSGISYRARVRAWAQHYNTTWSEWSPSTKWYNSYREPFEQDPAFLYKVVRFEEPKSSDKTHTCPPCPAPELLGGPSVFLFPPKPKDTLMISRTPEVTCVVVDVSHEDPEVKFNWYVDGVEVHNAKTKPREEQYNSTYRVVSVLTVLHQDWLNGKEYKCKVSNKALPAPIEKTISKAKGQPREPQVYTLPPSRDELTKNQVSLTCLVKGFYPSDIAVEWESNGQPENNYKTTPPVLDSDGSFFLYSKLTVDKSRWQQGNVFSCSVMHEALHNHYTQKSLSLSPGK

B1: Antibody 3 scFv (scFv, V domains shown)
VH: QVQLVQSGAEVKKPGASVKVSCKASGYAFTSYYMHWARQAPGQGLEWMGIINPSGGSTSYAQKFQGRVTMTRDTSTSTVYMELSSLRSEDTAVYYCARGKLLKNPWGKGTLVTVSS
VL: QSVLTQPPSVSAAPGQKVTISCSGGSSNIGNSYVSWYQQLPGTAPKLLIYDNNKRPSGIPDRFSGSKSGTSATLAITGLQTGDEADYYCGTWFGTPASNYVFGTGTKLTVL
notes: tested as purified scFv
For the molecule B1, the inhibitory constant (Ki) (in general, a dissociation constant, usually derived from enzyme kinetics or from competition with a known ligand) in assay [1] worked out at 48 nM; in assay [2], 0.5 nM.

B2: Antibody 20 scFv (scFv, V domains shown)
VH: QVQLVQSGAEVKKPGASVKVSCKASGYAFTSYYMHWARQAPGQGLEWMGIINPSGGSTSYAQKFQGRVTMTRDTSTSTVYMELSSLRSEDTAVYYCARGKYWMYDWGKGTLVTVSS
VL: QSVLTQPPSVSAAPGQKVTISCSGGSSNIGNSYVSWYQQLPGTAPKLLIYDNNKRPSGIPDRFSGSKSGTSATLAITGLQTGDEADYYCGTWDTSTVWEWPFGTGTKLTVL
notes: tested as purified scFv
In the case of B2, the inhibitory constant (Ki) worked out at 4.2 nM in assay [1] and 0.7 nM in assay [2].

B3: Antibody 10 scFv (scFv, V domains shown)
VH: QVQLVQSGAEVKKPGASVKVSCKASGYAFTSYYMHWARQAPGQGLEWMGIINPSGGSTSYAQKFQGRVTMTRDTSTSTVYMELSSLRSEDTAVYYCARGKWWLYDWGKGTLVTVSS
VL: QSVLTQPPSVSAAPGQKVTISCSGGSSNIGNSYVSWYQQLPGTAPKLLIYDNNKRPSGIPDRFSGSKSGTSATLAITGLQTGDEADYYCGTWDTSTVLTPIFGTGTKLTVL
notes: tested as purified scFv
As to B3, the inhibition constant (Ki) was 19.6 nM in assay [1] and 0.5 nM in assay [2].

B4: Antibody 11 scFv (scFv, V domains shown)
VH: QVQLVQSGAEVKKPGASVKVSCKASGYAFTSYYMHWARQAPGQGLEWMGIINPSGGSTSYAQKFQGRVTMTRDTSTSTVYMELSSLRSEDTAVYYCARGKWWFYDWGKGTLVTVSS
VL: QSVLTQPPSVSAAPGQKVTISCSGGSSNIGNSYVSWYQQLPGTAPKLLIYDNNKRPSGIPDRFSGSKSGTSATLAITGLQTGDEADYYCGTWDTSPSMIPLFGTGTKLTVL
notes: tested as purified scFv
For the molecule B4, the Ki in assay [1] was 26.1 nM; in assay [2], 0.7 nM.

B5: Antibody 2 scFv (scFv, V domains shown)
VH: QVQLVQSGAEVKKPGASVKVSCKASGYAFTSYYMHWARQAPGQGLEWMGIINPSGGSTSYAQKFQGRVTMTRDTSTSTVYMELSSLRSEDTAVYYCARGKWWLYNWGKGTLVTVSS
VL: QSVLTQPPSVSAAPGQKVTISCSGGSSNIGNSYVSWYQQLPGTAPKLLIYDNNKRPSGIPDRFSGSKSGTSATLAITGLQTGDEADYYCGTWDTSQPPNPLFGTGTKLTVL
notes: tested as purified scFv
As for B5, the Ki was found to be 4.3 nM in assay [1] and 0.6 nM in assay [2].

B6: Antibody 39 scFv (scFv, V domains shown)
VH: QVQLVQSGAEVKKPGASVKVSCKASGYAFTSYYMHWARQAPGQGLEWMGIINPRGGSTSYAQKFQGRVTMTRDTSTSTVYMELSSLRSEDTAVYYCARGKYWMYDWGKGTLVTVSS
VL: QSVLTQPPSVSAAPGQKVTISCSGGSSNIGNSYVSWYQQLPGTAPKLLIYDNNKRPSGIPDRFSGSKSGTSATLAITGLQTGDEADYYCGTWDTSTAWEWPFGTGTKLTVL
notes: tested as purified scFv
On to B6, for which the results for the Ki in assay [1] and in assay [2] were 1.6 nM and 0.027 nM, respectively.

B7: Antibody 9 scFv (scFv, V domains shown)
VH: QVQLVQSGAEVKKPGASVKVSCKASGYAFTSYYMHWARQAPGQGLEWMGIINPSGGSTSYAQKFQGRVTMTRDTSTSTVYMELSSLRSEDTAVYYCARGKWWLYNWGKGTLVTVSS
VL: QSVLTQPPSVSAAPGQKVTISCSGGSSNIGNSYVSWYQQLPGTAPKLLIYDNNKRPSGIPDRFSGSKSGTSATLAITGLQTGDEADYYCGTWDTSTTMYPLFGTGTKLTVL
notes: tested as purified scFv
Turning to B7, the Ki in assay [1] is 12.9 nM; in assay [2] it was 0.1 nM.

B8: Antibody 7 scFv (scFv, V domains shown)
VH: QVQLVQSGAEVKKPGASVKVSCKASGYAFTSYYMHWARQAPGQGLEWMGIINPSGGSTSYAQKFQGRVTMTRDTSTSTVYMELSSLRSEDTAVYYCARGKWWWQYWGKGTLVTVSS
VL: QSVLTQPPSVSAAPGQKVTISCSGGSSNIGNSYVSWYQQLPGTAPKLLIYDNNKRPSGIPDRFSGSKSGTSATLAITGLQTGDEADYYCGTWDTSSPPQPIFGTGTKLTVL
notes: tested as purified scFv
As to B8, the Ki in assay [1] was found to be 16.5 nM; in assay [2] it was 1.1 nM.

B9: Antibody 32 scFv (scFv, V domains shown)
VH: QVQLVQSGAEVKKPGASVKVSCKASGYAFTSYYMHWARQAPGQGLEWMGIINPSGGSTSYAQKFQGRVTMTRDTSTSTVYMELSSLRSEDTAVYYCARGKYWMYDWGKGTLVTVSS
VL: QSVLTQPPSVSAAPGQKVTISCSGGSSNIGNSYVSWYQQLPGTAPKLLIYDNNKRPSGIPDRFSGSKSGTSATLAITGLQTGDEADYFCGTWDTSTAWEWPFGTGTKLTVL
notes: tested as purified scFv
As to B9, the values for the inhibition constant (Ki) in assay [1] and in assay [2] were 1.3 nM and 0.075 nM, respectively.

B10: Antibody 14 scFv (scFv, V domains shown)
VH: QVQLVQSGAEVKKPGASVKVSCKASGYAFTSYYMHWARQAPGQGLEWMGIINPSGGSTSYAQKFQGRVTMTRDTSTSTVYMELSSLRSEDTAVYYCARGKWWLYNWGKGTLVTVSS
VL: QSVLTQPPSVSAAPGQKVTISCSGGSSNIGNSYVSWYQQLPGTAPKLLIYDNNKRPSGIPDRFSGSKSGTSATLAITGLQTGDEADYYCGTWDTSPPTKPLFGTGTKLTVL
notes: tested as purified scFv
Regarding B10, the Ki in assay [1] stood at 27.7 nM; in assay [2], 0.6 nM.

B11: Antibody 6 scFv (scFv, V domains shown)
VH: QVQLVQSGAEVKKPGASVKVSCKASGYAFTSYYMHWARQAPGQGLEWMGIINPSGGSTSYAQKFQGRVTMTRDTSTSTVYMELSSLRSEDTAVYYCARGKYWMYDWGKGTLVTVSS
VL: QSVLTQPPSVSAAPGQKVTISCSGGSSNIGNSYVSWYQQLPGTAPKLLIYDNNKRPSGIPDRFSGSKSGTSATLAITGLQTGDEADYYCGTWDTSTTYHPIFGTGTKLTVL
notes: tested as purified scFv
On to B11, for which the Ki in assay [1] came to 3.5 nM; in assay [2] it was 0.3 nM.

B12: Antibody 12 scFv (scFv, V domains shown)
VH: QVQLVQSGAEVKKPGASVKVSCKASGYAFTSYYMHWARQAPGQGLEWMGIINPSGGSTSYAQKFQGRVTMTRDTSTSTVYMELSSLRSEDTAVYYCARGKWWFYDWGKGTLVTVSS
VL: QSVLTQPPSVSAAPGQKVTISCSGGSSNIGNSYVSWYQQLPGTAPKLLIYDNNKRPSGIPDRFSGSKSGTSATLAITGLQTGDEADYYCGTWDTSTTMYPLFGTGTKLTVL
notes: tested as purified scFv
As to B12, the figures for the Ki in assay [1] and in assay [2] were 7.2 nM and 0.3 nM, respectively.

B13: Antibody 4 scFv (scFv, V domains shown)
VH: QVQLVQSGAEVKKPGASVKVSCKASGYAFTSYYMHWARQAPGQGLEWMGIINPSGGSTSYAQKFQGRVTMTRDTSTSTVYMELSSLRSEDTAVYYCARGKWWLYNWGKGTLVTVSS
VL: QSVLTQPPSVSAAPGQKVTISCSGGSSNIGNSYVSWYQQLPGTAPKLLIYDNNKRPSGIPDRFSGSKSGTSATLAITGLQTGDEADYYCGTWDTSSPPQPIFGTGTKLTVL
notes: tested as purified scFv
In the case of B13, the results for the Ki in assay [1] and in assay [2] were 6.8 nM and 0.8 nM, respectively.

B14: Antibody 29 scFv (scFv, V domains shown)
VH: QVQLVQSGAEVKKPGASVKVSCKASGYAFTSYYMHWARQAPGQGLEWMGIINPSGGSTSYAQKFQGRVTMTRDTSTSTVYMELSSLRSEDTAVYYCARGKYWMYDWGKGTRVTVSS
VL: QSVLTQPPSVSAAPGQKVTISCSGGSSNIGNSYVSWYQQLPGTAPKLLIYDNNKRPSGIPDRFSGSKSGTSATLAITGLQTGDEADYYCGTWDTSPVWEWPFGTGTKLTVL
notes: tested as purified scFv
B14: the inhibitory constant (Ki) in assay [1] stood at 2.4 nM; in assay [2] it was 0.061 nM.

B15: Antibody 34 scFv (scFv, V domains shown)
VH: QVQLVQSGAEVKKPGASVKVSCKASGYAFTSYYMHWARQAPGQGLEWMGIINPSGGSTSYAQKFQGRVSMTRDTSTSTVYMELSSLRSEDTAVYYCARGKYWMYDWGKGTLVTVSS
VL: QSVLTQPPSVSAAPGQKVTISCSGGSSNIGNSYVSWYQQLPGTAPKLLIYDNNKRPSGIPDRFSGSKSGTSATLAITGLQTGDEADYFCGTWDTSTVWEWPFGTGTKLTVL
notes: tested as purified scFv
As for B15, the figures for the Ki in assay [1] and in assay [2] were 1.2 nM and 0.056 nM, respectively.

B16: Antibody 8 scFv (scFv, V domains shown)
VH: QVQLVQSGAEVKKPGASVKVSCKASGYAFTSYYMHWARQAPGQGLEWMGIINPSGGSTSYAQKFQGRVTMTRDTSTSTVYMELSSLRSEDTAVYYCARGKWWWQYWGKGTLVTVSS
VL: QSVLTQPPSVSAAPGQKVTISCSGGSSNIGNSYVSWYQQLPGTAPKLLIYDNNKRPSGIPDRFSGSKSGTSATLAITGLQTGDEADYYCGTWDTSTTYHPIFGTGTKLTVL
notes: tested as purified scFv
Consider B16, for which the inhibitory constant (Ki) in assay [1] is 9.4 nM; in assay [2] it was 0.4 nM.

B17: Antibody 17 scFv (scFv, V domains shown)
VH: QVQLVQSGAEVKKPGASVKVSCKASGYAFTSYYMHWARQAPGQGLEWMGIINPSGGSTSYAQKFQGRVTMTRDTSTSTVYMELSSLRSEDTAVYYCARGKWWWQHWGKGTLVTVSS
VL: QSVLTQPPSVSAAPGQKVTISCSGGSSNIGNSYVSWYQQLPGTAPKLLIYDNNKRPSGIPDRFSGSKSGTSATLAITGLQTGDEADYYCGTWDTSPVDRPIFGTGTKLTVL
notes: tested as purified scFv
Consider B17, for which the inhibition constant (Ki) in assay [1] is 43.5 nM; in assay [2] it was 0.9 nM.

B18: Antibody 36 scFv (scFv, V domains shown)
VH: QVQLVQSGAEVKKPGASVKVSCKASGYAFTSYYMHWARQAPGQGLEWMGIINPSGGSASYAQKFQGRVTMTRDTSTSTVYMELSSLRSEDTAVYYCARGKYWMYDWGKGTLVTVSS
VL: QSVLTQPPSVSAAPGQKVTISCSGGSSNIGNSYVSWYQQLPGTAPKLLIYDNNKRPSGIPDRFSGSKSGTSATLAITGLQTGDEADYYCGTWDSSTVWEWPFGTGTKLTVL
notes: tested as purified scFv
Take B18: the Ki was 5.3 nM in assay [1] and 0.1 nM in assay [2].

B19: Antibody 5 scFv (scFv, V domains shown)
VH: QVQLVQSGAEVKKPGASVKVSCKASGYAFTSYYMHWARQAPGQGLEWMGIINPSGGSTSYAQKFQGRVTMTRDTSTSTVYMELSSLRSEDTAVYYCARGKWWLYDWGKGTLVTVSS
VL: QSVLTQPPSVSAAPGQKVTISCSGGSSNIGNSYVSWYQQLPGTAPKLLIYDNNKRPSGIPDRFSGSKSGTSATLAITGLQTGDEADYYCGTWDTSSPPQPIFGTGTKLTVL
notes: tested as purified scFv
Take B19: the figures for the inhibitory constant (Ki) in assay [1] and in assay [2] were 3.8 nM and 0.6 nM, respectively.
